Reference: PMC12440737 (2025)

Target: T1, IL-6 receptor (Homo sapiens, UniProt P08887)
T1 chain: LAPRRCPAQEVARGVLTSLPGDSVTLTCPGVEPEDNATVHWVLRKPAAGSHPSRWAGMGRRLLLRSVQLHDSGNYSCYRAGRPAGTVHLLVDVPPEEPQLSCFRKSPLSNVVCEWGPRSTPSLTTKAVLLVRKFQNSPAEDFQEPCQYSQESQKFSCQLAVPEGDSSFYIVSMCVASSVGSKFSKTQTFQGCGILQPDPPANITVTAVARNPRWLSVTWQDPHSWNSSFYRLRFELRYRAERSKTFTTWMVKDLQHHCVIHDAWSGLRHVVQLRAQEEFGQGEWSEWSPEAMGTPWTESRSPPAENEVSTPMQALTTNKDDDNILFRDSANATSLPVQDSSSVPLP
Assay: SPR

B1: Tocilizumab (antibody, V domains shown)
VH: QVQLQESGPGLVRPSQTLSLTCTVSGYSITSDHAWSWVRQPPGRGLEWIGYISYSGITTYNPSLKSRVTMLRDTSKNQFSLRLSSVTAADTAVYYCARSLARTTAMDYWGQGSLVTVSS
VL: DIQMTQSPSSLSASVGDRVTITCRASQDISSYLNWYQQKPGKAPKLLIYYTSRLHSGVPSRFSGSGSGTDFTFTISSLQPEDIATYYCQQGNTLPYTFGQGTKVEIK
Work on B1 yielded a Kd of 9.9 nM.
